# Laboratory results taken from US20180155451A1 (published 2018).
# T1: FcγRIIb extracellular domain with C-terminal His tag (human, UniProt P31994 43-217)
# T1 construct: extracellular domain; soluble receptor expressed in FreeStyle293 cells, used as analyte in Biacore; also called FcgRIIb; 2b; not shown: His tag attached to the C terminus
# T1 sequence (looked up): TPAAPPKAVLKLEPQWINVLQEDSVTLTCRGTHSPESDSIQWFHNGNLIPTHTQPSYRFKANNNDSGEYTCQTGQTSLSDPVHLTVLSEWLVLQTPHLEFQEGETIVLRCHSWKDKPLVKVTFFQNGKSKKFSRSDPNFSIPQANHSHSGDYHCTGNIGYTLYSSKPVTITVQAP
# T2: FcγRIIa H (human, UniProt P12318 34-217)
# T2 construct: extracellular domain; also called FcγRIIa type H; 2aH
# T2 sequence (looked up): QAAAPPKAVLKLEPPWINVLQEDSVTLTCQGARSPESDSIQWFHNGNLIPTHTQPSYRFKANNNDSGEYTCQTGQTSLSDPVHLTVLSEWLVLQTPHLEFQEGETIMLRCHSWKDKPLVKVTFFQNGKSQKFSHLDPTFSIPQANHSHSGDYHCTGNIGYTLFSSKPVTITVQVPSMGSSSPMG
# T3: FcγRIIb (human, UniProt P31994 43-217)
# T3 construct: extracellular domain; also called 2b
# T3 sequence (looked up): T1 sequence (looked up)
# B1: GpH7-A5/GpH7-B3 variant S324_12R/GpL16-k0 (antibody, human IgG1, kappa)
# heavy 1: not shown
# heavy 2: not shown
# light: DIVMTQSPLSLPVTPGEPASISCQASESLVHSNRNTYLHWYLQKPGQSPQLLIYKVSNRFSGVPDRFSGSGSGTDFTLKISRVEAEDVGVYYCSQNTHVPPTFGQGTKVEIERTVAAPSVFIFPPSDEQLKSGTASVVCLLNNFYPREAKVQWKVDNALQSGNSQESVTEQDSKDSTYSLSSTLTLSKADYEKHKVYACEVTHQGLSSPVTKSFNRGEC
# notes: heterodimerized anti-glypican-3 IgG1; alteration in the GpH7-B3 chain only; also called He Ab
# B2: GpH7-A5/GpH7-B3 variant S324_19Q/GpL16-k0 (antibody, human IgG1, kappa)
# heavy 1: not shown
# heavy 2: not shown
# light: B1 light
# notes: as for B1
# B3: GpH7-A5/GpH7-B3 variant S324_15Y/GpL16-k0 (antibody, human IgG1, kappa)
# heavy 1: not shown
# heavy 2: not shown
# light: B1 light
# notes: as for B1
# B4: GpH7-A5/GpH7-B3 variant S324_20W/GpL16-k0 (antibody, human IgG1, kappa)
# heavy 1: not shown
# heavy 2: not shown
# light: B1 light
# notes: as for B1
# B5: GpH7-A5/GpH7-B3 variant S324_18N/GpL16-k0 (antibody, human IgG1, kappa)
# heavy 1: not shown
# heavy 2: not shown
# light: B1 light
# notes: as for B1
# B6: GpH7-A5/GpH7-B3 variant S324_16H/GpL16-k0 (antibody, human IgG1, kappa)
# heavy 1: not shown
# heavy 2: not shown
# light: B1 light
# notes: as for B1
# B7: GpH7-A5/GpH7-B3 variant S324_14T/GpL16-k0 (antibody, human IgG1, kappa)
# heavy 1: not shown
# heavy 2: not shown
# light: B1 light
# notes: as for B1
# B8: GpH7-A5/GpH7-B3 variant K334_05P/GpL16-k0 (antibody, human IgG1, kappa)
# heavy 1: not shown
# heavy 2: not shown
# light: B1 light
# notes: heterodimerized IgG1, mutation in one H chain only; also called He Ab
# B9: GpH7-A5/GpH7-B3 variant K326_20W/GpL16-k0 (antibody, human IgG1, kappa)
# heavy 1: not shown
# heavy 2: not shown
# light: B1 light
# notes: as for B8
# B10: GpH7-A5/GpH7-B3 variant A327_01G/GpL16-k0 (antibody, human IgG1, kappa)
# heavy 1: not shown
# heavy 2: not shown
# light: B1 light
# notes: as for B8
# B11: GpH7-A5/GpH7-B3 variant A327_10E/GpL16-k0 (antibody, human IgG1, kappa)
# heavy 1: not shown
# heavy 2: not shown
# light: B1 light
# notes: as for B8
# B12: GpH7-A5/GpH7-B3 variant N325_03V/GpL16-k0 (antibody, human IgG1, kappa)
# heavy 1: not shown
# heavy 2: not shown
# light: B1 light
# notes: as for B8
# B13: GpH7-A5/GpH7-B3 variant P331_06M/GpL16-k0 (antibody, human IgG1, kappa)
# heavy 1: not shown
# heavy 2: not shown
# light: B1 light
# notes: as for B8
# B14: GpH7-A5/GpH7-B3 variant N325_06M/GpL16-k0 (antibody, human IgG1, kappa)
# heavy 1: not shown
# heavy 2: not shown
# light: B1 light
# notes: as for B8
# B15: GpH7-A5/GpH7-B3 variant N325_08L/GpL16-k0 (antibody, human IgG1, kappa)
# heavy 1: not shown
# heavy 2: not shown
# light: B1 light
# notes: as for B8
# B16: GpH7-A5/GpH7-B3 variant N325_01G/GpL16-k0 (antibody, human IgG1, kappa)
# heavy 1: not shown
# heavy 2: not shown
# light: B1 light
# notes: as for B8
# B17: GpH7-A5/GpH7-B3 variant P331_04F/GpL16-k0 (antibody, human IgG1, kappa)
# heavy 1: not shown
# heavy 2: not shown
# light: B1 light
# notes: as for B8
# B18: GpH7-A5/GpH7-B3 variant K334_12R/GpL16-k0 (antibody, human IgG1, kappa)
# heavy 1: not shown
# heavy 2: not shown
# light: B1 light
# notes: as for B8
# B19: GpH7-A5/GpH7-B3 variant A327_18N/GpL16-k0 (antibody, human IgG1, kappa)
# heavy 1: not shown
# heavy 2: not shown
# light: B1 light
# notes: as for B8
# B20: GpH7-A5/GpH7-B3 variant N325_20W/GpL16-k0 (antibody, human IgG1, kappa)
# heavy 1: not shown
# heavy 2: not shown
# light: B1 light
# notes: as for B8
# B21: GpH7-A5/GpH7-B3 variant L328_09D/GpL16-k0 (antibody, human IgG1, kappa)
# heavy 1: not shown
# heavy 2: not shown
# light: B1 light
# notes: as for B8
# Molecular target: T4, FcγRIa extracellular domain with C-terminal His tag (human, UniProt P12314 16-292)
# T4 construct: extracellular domain; soluble receptor expressed in FreeStyle293 cells, used as analyte in Biacore; also called FcgRI; 1a; not shown: His tag attached to the C terminus
# T4 sequence (P12314 16-292): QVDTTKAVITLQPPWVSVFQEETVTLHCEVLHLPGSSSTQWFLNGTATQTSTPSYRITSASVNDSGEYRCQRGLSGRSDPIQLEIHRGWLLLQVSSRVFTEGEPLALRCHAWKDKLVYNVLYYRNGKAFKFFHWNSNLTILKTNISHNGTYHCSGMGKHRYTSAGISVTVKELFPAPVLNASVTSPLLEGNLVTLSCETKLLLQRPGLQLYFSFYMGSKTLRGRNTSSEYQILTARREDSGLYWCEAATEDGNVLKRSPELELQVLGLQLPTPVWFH
# Test: SPR (Biacore), antibody captured on antigen peptide chip, FcγR as analyte; relative binding
row,He/Con_1a,Binder
1,102 % of control GpH7-A5/GpH7-B3/GpL16-k0 (=100),B1
2,112 % of control GpH7-A5/GpH7-B3/GpL16-k0 (=100),B2
3,114 % of control GpH7-A5/GpH7-B3/GpL16-k0 (=100),B3
4,114 % of control GpH7-A5/GpH7-B3/GpL16-k0 (=100),B4
5,116 % of control GpH7-A5/GpH7-B3/GpL16-k0 (=100),B5
6,113 % of control GpH7-A5/GpH7-B3/GpL16-k0 (=100),B6
7,121 % of control GpH7-A5/GpH7-B3/GpL16-k0 (=100),B7

# Molecular target: T1, FcγRIIb extracellular domain with …
# Test: as above
row,He/Con_2b,Binder
1,63.1 % of control GpH7-A5/GpH7-B3/GpL16-k0 (=100),B1
2,66.8 % of control GpH7-A5/GpH7-B3/GpL16-k0 (=100),B2
3,88.2 % of control GpH7-A5/GpH7-B3/GpL16-k0 (=100),B3
4,87.5 % of control GpH7-A5/GpH7-B3/GpL16-k0 (=100),B4
5,81.1 % of control GpH7-A5/GpH7-B3/GpL16-k0 (=100),B5
6,83.5 % of control GpH7-A5/GpH7-B3/GpL16-k0 (=100),B6
7,88.4 % of control GpH7-A5/GpH7-B3/GpL16-k0 (=100),B7

# Molecular target: T2, FcγRIIa H
# Test: SPR (Biacore), relative binding vs GpH7-A5/GpH7-B3/GpL16-k0
# Procedure: (§1) The heterodimerized antibodies He Abs in which one of the H chains was introduced with an alteration were assayed for their binding activities to each activating FcγR and inhibitory FcγR according to the method described in Example 4. […] The activating FcγRs in FIGS. 26, 27, 28, and 29 are FcγRIa, FcγRIIa (R), FcγRIIa (H), and FcγRIIIa, respectively.
# (§2) Analysis of interaction between objective antibody and the FcγR was carried out using Biacore T100 (GE Healthcare). HBS-EP+ (GE Healthcare) was used as the running buffer, and the measurement temperature was set to 25° C. Chips produced by immobilizing the antigen peptide by the amine coupling method to a Series S Sencor Chip CM5 (GE Healthcare), or alternatively, chips produced by allowing preliminarily biotinylated antigen peptides to interact with and immobilize onto a Series S Sensor Chip SA (certified) (GE Healthcare) were used. Antibodies of interest were captured onto an antigen peptide-immobilized chip, and allowed to interact to each FcγR diluted with running buffer. To regenerate and repeatedly use the chip, the antibodies captured on the chip were washed off by reacting 10 mM glycine-HCl, pH 1.5.
row,He/Con_2aH,Binder
1,97.6 % of control He Ab (=100),B8
2,83.3 % of control He Ab (=100),B9
3,97.2 % of control He Ab (=100),B10
4,91.3 % of control He Ab (=100),B11
5,45.2 % of control He Ab (=100),B12
6,85.1 % of control He Ab (=100),B13
7,48.2 % of control He Ab (=100),B14
8,52 % of control He Ab (=100),B15
9,56.8 % of control He Ab (=100),B16
10,84.7 % of control He Ab (=100),B17
11,99.7 % of control He Ab (=100),B18
12,66.8 % of control He Ab (=100),B19
13,47.2 % of control He Ab (=100),B20
14,58.5 % of control He Ab (=100),B21

# Molecular target: T3, FcγRIIb
# Test: as above
# Procedure: as §1, §2
row,He/Con_2b,Binder
1,105 % of control He Ab (=100),B8
2,148 % of control He Ab (=100),B9
3,116 % of control He Ab (=100),B10
4,140 % of control He Ab (=100),B11
5,111 % of control He Ab (=100),B12
6,102 % of control He Ab (=100),B13
7,217 % of control He Ab (=100),B14
8,197 % of control He Ab (=100),B15
9,101 % of control He Ab (=100),B16
10,110 % of control He Ab (=100),B17
11,111 % of control He Ab (=100),B18
12,113 % of control He Ab (=100),B19
13,169 % of control He Ab (=100),B20
14,199 % of control He Ab (=100),B21
